The record followed here is US20170267762A1 (APOLLOMICS, published 2017).

The target of one experiment is T1, mouse PD-1 (mouse, UniProt Q02242 25-169, limits assumed).
T1 sequence (looked up): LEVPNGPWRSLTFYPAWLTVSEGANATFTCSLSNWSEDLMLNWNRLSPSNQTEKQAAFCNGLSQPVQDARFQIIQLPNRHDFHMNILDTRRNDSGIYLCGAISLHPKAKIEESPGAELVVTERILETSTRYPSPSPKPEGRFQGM
The experiment in a line: assays not detailed.

The target of experiment [1] is T2, human PD-1 extracellular domain fused with human Fc tag (hPD-1-hFc) (human).
T2 construct: also called human PD-1-hFc
The experiment in a line: ELISA on coated PD1-hFc. The protocol: (§1) ELISA binding analysis was conducted based on human PD-1-hFc Protein. 96-well plates (Costar, Cat No:9018) were coated with 100 μL of 2 μg/ml PD1-hFc (CrownBio) in coating buffer (PBS, Hyclone, Cat No:SH30256.01B) overnight at 4° C. The wells were aspirated and non-specific binding sites were blocked by adding 200 μL of blocking buffer with 1% (w/v) of bovine serum albumin (BSA, Roche, Cat No: 738328) and incubating for 1 hour at 37° C. After the plates are washed three times with wash buffer (PBS with 0.05%(v/v) Tween20 (Sigma, Cat No:P1379), 100 μL/well of a suitable dilutions of hybridoma supernatant in blocking buffer were added and incubated at room temperature for 1 hour. The plates were washed and incubated with 100 μL/well of Goat anti-Mouse IgG (H+L) (Thermo, Cat No: 31432) in blocking buffer for 60 min. After the plates were washed, 100 μL/well of substrate solution (TMB(eBioscience, Cat No:00-4201-56) was added and the plates were incubated for 2min at room temperature. 100 μL/well of stop solution (2N H2SO4) was added to stop the reaction. The colorimetric signals were developed and read at 450 nm using a Auto Plate SpectraMax Plus (Supplier: Molecular Devices; Model: MNR0643; Software: SoftMax Pro v5.4).
(§2) The purified hybridoma antibodies were characterized further based on ELISA and FACS analyses.

For experiment [2], the target named is T2, human PD-1 extracellular domain fused …. The experiment in a line: ELISA binding (summary table). The protocol: as §1, §2
Background: ELISA stands for enzyme-linked immunosorbent assay.

The target of experiment [3] is T3, human PD-1 (construct not stated) (human, UniProt Q15116 25-167, limits assumed).
T3 construct: also called PD-1 analyte
The experiment in a line: Biacore, antibody captured, PD-1 analyte. Here is the method: (§3) To further characterize the binding characteristics of the antibodies, 10 hybridoma antibodies were profiled using Biacore (Biacore 3000, GE) to elucidate binding kinetics and calculate equilibrium binding constants. This assay was performed by capture method, using the mouse antibody capture kit (BR-1008-38, GE). After diluting anti-mouse Fc mab to 25 μg/ml in pH 5.0 immobilization buffer, immobilization was conducted with the parameters shown in Table 6 at a flow rate of 5 μl/min. The kinetic runs were done by 1) injecting ligand for typical 0.5-1 min at flow rate of 10 μl/min.; 2) injecting analytes of choice for typical 3 min followed by dissociation in running buffer (1× PBS-P20) for typical 5-10 min at flow rate of 30 μl/min.; and 3) injecting regeneration solution 10 mM Glycine pH1.7 for typical 1-2 min at flow rate of 10 μl/min.

Experiment [4] concerns the target T3, human PD-1 (construct not stated). The experiment in a line: Biacore (summary table; unit from Table 7). The protocol: as §3
In general terms: Surface plasmon resonance follows binding to a sensor surface in real time, without labels.

A further experiment deals with T4, human CTLA4 (human, UniProt P16410 36-161, limits assumed).
T4 sequence (looked up): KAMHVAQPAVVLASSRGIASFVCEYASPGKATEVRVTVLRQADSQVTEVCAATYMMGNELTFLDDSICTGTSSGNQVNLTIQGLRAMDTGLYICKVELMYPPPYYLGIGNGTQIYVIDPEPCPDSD
The experiment in a line: Interaction with CTLA4, ICOS CD28; assay not detailed.

The target in another experiment is T5, human ICOS (human, UniProt Q9Y6W8 21-140, limits assumed).
T5 sequence (looked up): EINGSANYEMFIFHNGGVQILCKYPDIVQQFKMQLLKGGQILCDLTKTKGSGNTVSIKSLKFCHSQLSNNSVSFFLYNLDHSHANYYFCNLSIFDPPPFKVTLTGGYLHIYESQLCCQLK
The description is as above.

A further experiment has as its target human CD28 (human, UniProt P10747 19-152, limits assumed). Described as above.
The target of experiment [5] is T6, human PD-1 on cells (293T cells transfected with human PD-1) (human, UniProt Q15116 25-288).
T6 construct: whole, on cells; Also used as the target for the functional rows, where PD-1 stands on human T cells
The experiment in a line: FACS blockage on hPD-1-293T cells, competitor biotin PD-L1. Here is the method:
(§4) Various concentrations of the testing hybridoma antibodies were added to the cell suspension and incubated at 4° C. for 60 minutes in 96 well plates. […] Plates were washed 3 times, and mouse anti-biotin PE antibody (Biolgend, cat# 409004) was added. Flow cytometric analyses were performed using a FACS Array.
as §2

For experiment [6], the target named is T6, human PD-1 on cells (293T cells …). The experiment in a line: FACS blockage on hPD-1-293T cells, competitor biotin PD-L2. The protocol: as §4, §2
Experiment [7] concerns the target T7, human PD-1 extracellular domain fused with mouse Fc (PD-1-mFc) (human, UniProt Q15116 25-170).
T7 construct: extracellular domain; not used because of the label; also called hPD-1-mFc; human PD-1-mouse Fc fusion protein
The experiment in a line: blockage ELISA, coated PD-1-mFc, competitor PDL-1-mFc-biotin. Here is the method: (§5) PD-1-mFc antigen (CrownBio) was suspended in PBS (Hyclone,Cat No:SH30256.01B) buffer (2 ug/ml, 100 ul/ well) and coated on the 96 well plate (costar, Cat No.:9018) 4° C. overnight. Plates were washed 3 times using washing buffer: PBS+0.05% Tween 20(Sigma, Cat No.:P1379). 200 ul of blocking buffer (PBS+1%BSA(Roche, Cat No.:738328)), was added to each well, incubated at 37° C. for 1 hour, and washed 3 times. Various concentrations (suitable dilutions of hybridoma supernatant in PBS) of the anti-PD-1 Abs were added to the wells (100 μl/well) and incubated at 37° C. for 1 hour. […] Secondary antibody (Avidin HRP eBioscience cat No.:E07418-1632, 1:500, 100 ul/well) was added, incubated at 37 ° C. for 0.5 hour, and washed 3 times. TMB (Sigma, Cat No.: T0440, 100 ul/well) was added, and incubated for 3 min at RT. To stop the reaction, 2N H2SO4 (100 ul/well), was added. The colorimetric signals were developed and read at 450 nm using a Auto Plate SpectraMax Plus (Supplier: Molecular Devices; Model: MNR0643; Software: SoftMax Pro v5.4).
as §2

Experiment [8] deals with T7, human PD-1 extracellular domain fused …. The experiment in a line: blockage ELISA, competitor PDL-1-mFc-biotin (summary table; IC50 in ng/ml in Table 2). The protocol:
as §5

Experiment [9] addresses T2, human PD-1 extracellular domain fused …. The experiment in a line: ELISA on coated PD1-hFc. Here is the method: as §1
(§6) Freestyle 293 cells (200 mL at 10⁶/mL) were transfected with 100 μg of each of the chimeric heavy and light chain expression plasmids and cultured for 6 days. The chimeric antibody in the supernatant was then purified with Protein-G column (GE healthcare).
The source holds these as a separate data set.

The target in experiment [10] is T6, human PD-1 on cells (293T cells …). The experiment in a line: FACS on hPD-1-293T cells. Here is the method:
The cells were incubated with the indicated antibody (20 ug/ml with the dilution of ⅕) at 4° C. for 1 h. Cells were washed three times with FACS buffer. A secondary antibody (PE Goat anti-mouse: 1:200; PE mouse anti-human: 1:10) was added to the cells at 100 ul/well, and incubated at 4° C. for 40min. Cells were washed three times with FACS buffer and analyzed by FACS Array.
as §6

Experiment [11] deals with T7, human PD-1 extracellular domain fused …. The experiment in a line: blockage ELISA, coated PD-1-mFc, competitor PDL-1-mFc-biotin. Here is the method: as §5, §6
This is another data set of the same source.

Experiment [12] addresses T6, human PD-1 on cells (293T cells …). The experiment in a line: FACS blockage on hPD-1-293T cells, competitor biotin PD-L1. Here is the method: as §4, §6
This is another data set of the same source.

T6 sequence (Q15116 25-288): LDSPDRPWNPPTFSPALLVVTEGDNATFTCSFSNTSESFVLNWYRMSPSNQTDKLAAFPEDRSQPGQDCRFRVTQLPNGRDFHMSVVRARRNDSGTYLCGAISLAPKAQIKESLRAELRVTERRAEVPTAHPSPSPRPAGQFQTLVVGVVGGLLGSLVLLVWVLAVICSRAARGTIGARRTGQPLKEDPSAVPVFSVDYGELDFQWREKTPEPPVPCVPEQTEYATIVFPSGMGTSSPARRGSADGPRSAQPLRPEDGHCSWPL
T2 sequence (chain, as listed by the source limits assumed): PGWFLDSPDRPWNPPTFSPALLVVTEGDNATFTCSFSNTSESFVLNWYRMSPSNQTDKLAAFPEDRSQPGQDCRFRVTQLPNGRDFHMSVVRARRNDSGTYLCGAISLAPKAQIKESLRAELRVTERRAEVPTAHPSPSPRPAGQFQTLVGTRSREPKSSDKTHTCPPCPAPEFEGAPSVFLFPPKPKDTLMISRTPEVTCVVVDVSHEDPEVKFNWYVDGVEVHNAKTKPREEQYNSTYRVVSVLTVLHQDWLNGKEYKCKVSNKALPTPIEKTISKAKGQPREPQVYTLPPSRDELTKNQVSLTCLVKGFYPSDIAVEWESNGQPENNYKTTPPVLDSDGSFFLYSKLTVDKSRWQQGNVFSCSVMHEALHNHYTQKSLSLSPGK
human CD28, sequence (P10747 19-152 limits assumed): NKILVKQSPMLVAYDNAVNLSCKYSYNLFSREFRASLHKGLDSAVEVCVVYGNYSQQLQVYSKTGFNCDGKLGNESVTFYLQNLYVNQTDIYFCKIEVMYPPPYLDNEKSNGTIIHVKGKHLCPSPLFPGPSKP
T3 sequence (Q15116 25-167 limits assumed): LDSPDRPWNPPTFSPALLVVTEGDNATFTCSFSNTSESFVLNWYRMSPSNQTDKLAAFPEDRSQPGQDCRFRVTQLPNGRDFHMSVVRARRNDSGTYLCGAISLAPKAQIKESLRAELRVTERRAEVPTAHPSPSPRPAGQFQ
T7 sequence (Q15116 25-170): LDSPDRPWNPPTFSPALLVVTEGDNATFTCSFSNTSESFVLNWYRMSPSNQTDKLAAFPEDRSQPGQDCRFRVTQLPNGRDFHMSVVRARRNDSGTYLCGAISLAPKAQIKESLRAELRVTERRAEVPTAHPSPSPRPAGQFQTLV

B1: 10D1 murine anti-PD-1 antibody (antibody, V domains shown)
VH: EVKLVESGGGLVKPGGSLKLSCAASGFTFSSYGMSWLRQTPEKRLEWVATMSGGGRDIYYPDSMKGRFTISRDNAKNNLYLQMSSLRSEDTALYYCARQYYDDWFAYWGQGTLVTVSA
VL: DIVLTQTPATLSVTPGDSVSLSCRASQSISNNLHWYQQKSHESPRLLIKYASQSISGIPSRFSGSGSGTDFTLNINSVETEDFGMYFCQQSNSWPLTFGAGTKLELKR
notes: Purified hybridoma antibody; also called 10D1-mIgG1
On to B1, for which the binding result in the experiment with mouse PD-1, with human CTLA4, with human ICOS and with human CD28 was “no binding” each time. Moreover, the half-maximal effective concentration (EC50) in experiment [1] and in [2] was 0.0172 µg/mL each time. Also, the Ka in [3] is 1.6e+10 M⁻¹. In addition, the Kd in experiment [3] and in [4] was 0.0623 nM each time. Besides, in experiment [3], the koff (commonly the first-order rate constant of dissociation) was determined as 5.24e-05 s⁻¹. In experiment [3], the kon – broadly, a measure of how fast the partners come together – was found to be 840000 M⁻¹ s⁻¹. Moreover, the IC50 (commonly the point on the concentration scale where inhibition reaches its midpoint) turned out to be 0.0369 µg/mL in experiment [5], 0.15 µg/mL in experiment [6], 1.41 µg/mL in experiment [7] and 1410 ng/mL in experiment [8].

B2: chimeric 7D3-hIgG4 (antibody, V domains shown)
VH: EVKLVESGGGLVKPGGSLKLSCGASGFTFSSYGMSWVRQTPEKRLEWVATISGGGRDIYYPDSVKGRLTISRDNAKNNLYLQMSSLRSEDTALYYCVRQYYDDWFAYWGQGTLVTVSA
VL: DIVLTQSPATLSVTPGDSVSLSCRASQSISNDLHWYQQKSHESPRLLIKYVSQSISGIPSRFSGSGSGTDFTLSINSVETEDFGMYFCQQSDSWPLTFGAGTKLELKR
notes: Mouse variable regions with human IgG4 constant region
Turning to B2, the values for the concentration giving a half-maximal response (EC50) in [9] and in experiment [10] were 0.0517 µg/mL and 0.131 µg/mL, respectively. In addition, the IC50 in [11] was 0.948 µg/mL.

B3: chimeric 6E1-hIgG4 (antibody, V domains shown)
VH: EVKLVESGGGLVKPGGSLKLSCAASGFTFSSYGMSWVRQTPEKRLEWVATISGGGRDTYYLDSVKGRFTISRDNAKNNLYLQMSSLRSEDTALYYCVRQYYDDWFAYWGQGTLVSNSA
VL: DIVLTQTPATLSVTPGDSVSLSCRASQSLSNNLHWYQQKSHESPRLLIKYASQSISGIPSRFSGSGSGTDFTLSINSVETEDFGMYFCQQSNSWPLTFGAGTKLEMKR
notes: as for B2
With B3, the EC50 – broadly, the concentration giving half of the maximal effect – in [9] came to 0.0325 µg/mL; in [10], 0.143 µg/mL. Moreover, the concentration for half-maximal inhibition (IC50) in experiment [12] is 0.054 µg/mL; in experiment [11], 0.869 µg/mL.

B4: 14A6 murine anti-PD-1 antibody (antibody, V domains shown)
VH: DVQLQESGPGLVKPSQSLSLTCTVTGYSITSDYAWNWIRQFPGNQLEWMAYISYSGYTSYNPSLKSRISITRDTSRNQFFLQLNSVTTEDTATYYCARSLDYDYGTMDYWGQGTSVTVSS
VL: QIVLSQSPAILSASPGEKVTMTCRANSSVSSMHWYQQKPGSSPEPWIYAISNLAFGVPARFSGSGSGTSYSLTISRVEAEDAATYFCQQWNSRPPTFGGGTKLEIKR
notes: Purified hybridoma antibody; also called 14A6-mIgG1
As for B4, the binding result with mouse PD-1, with human CTLA4, with human ICOS and in the experiment with human CD28 was “no binding” each time. Besides, the half-maximal effective concentration (EC50) in experiment [1] and in [2] was 0.00707 µg/mL each time. In experiment [3], this molecule had a Ka of 3.33e+10 M⁻¹. The Kd in experiment [3] and in experiment [4] was 0.03 nM in each case. The koff in experiment [3] is 4.52e-05 s⁻¹. In [3], this molecule registered an on-rate constant (kon) of 1.51e+06 M⁻¹ s⁻¹. Moreover, the 50% inhibitory concentration (IC50) in experiment [5] was 0.0211 µg/mL; in [6], 0.092 µg/mL; in [7], 0.923 µg/mL; in experiment [8], 923 ng/mL.

B5: 5A8 murine anti-PD-1 antibody (antibody, V domains shown)
VH: QVQLQQSGDELVRPGTSVKMSCKAAGYTFTNNWIGWVKQRPGHGLEWIGDFYPGGGYTNYNEKFKGKATLTADTSSSTAYMQLSSLTSEDSAIYYCARGYGTNYWYFDVWGAGTTVTVSS
VL: NIVMTQTPKILFISAGDRVTITCKASQSVSNDVAWYQQKPGQSPKLLIYYAFTRYIGVPDRFTGSGYGTDFTFTISTVQAEDLAVYFCQQDYSSPYTFGGGTKLEIKR
notes: Purified hybridoma antibody; also called 5A8-mIgG1
Turning to B5, the binding result in the experiment with mouse PD-1, with human CTLA4, in the experiment with human ICOS and with human CD28 was “no binding” throughout. For the same molecule, the EC50 in [1] and in experiment [2] was 0.0112 µg/mL in each case. Also, the Ka in experiment [3] was found to be 1.7e+10 M⁻¹. Moreover, the Kd in experiment [3] and in [4] was 0.0587 nM throughout. Further, the off-rate (koff) in experiment [3] is 7.55e-05 s⁻¹. The molecule also gave a kon in experiment [3] of 1.29e+06 M⁻¹ s⁻¹. The IC50 in experiment [5] worked out at 0.0282 µg/mL; in experiment [6] it was 0.0188 µg/mL; in experiment [7] it was 1.13 µg/mL; in experiment [8], 1130 ng/mL.
